Substrate: O=C1OC(c2ccc(O)c(S(=O)(=O)O)c2)(c2ccc(O)c(S(=O)(=O)O)c2)c2c(Br)c(Br)c(Br)c(Br)c21
Test: TP_TRANSPORTER: uptake (no BSA) in Xenopus laevis oocytes
Assay type: functional, cell-based, Oocyte

B1: Solute carrier organic anion transporter family member 1A1 (Rattus norvegicus) (protein)
chain: MEETEKKIATQEGRLFSKMKVFLLSLTCACLTKSLSGVYMNSMLTQIERQFDISTSVAGLINGSFEIGNLFFIVFVSYFGTKLHRPVVIGIGCVIMGLGCLLMSLPHFFMGRYEYETTISPTGNLSSNSFLCMENRTQTLKPTQDPAECVKEMKSLMWICVMVGNIIRGIGETPIVPLGISYIEDFAKSENSPLYIGILEMGKVAGPIFGLLLGSYCAQIYVDIGSVNTDDLTITPSDTRWVGAWWIGFLVCAGVNILTSIPFFFLPKALPKKGQQENVAVTKDGKVEKYGGQAREENLGITKDFLTFMKRLFCNPIYMLFILTSVLQVNGFINKFTFLPKYLEQQYGKSTAEAIFLIGVYSLPPICLGYLIGGFIMKKFKITVKKAAYLAFCLSVFEYLLFLCHFMLTCDNAAVAGLTTSYKGVQHQLHVESKVLADCNTRCSCSTNTWDPVCGDNGVAYMSACLAGCKKFVGTGTNMVFQDCSCIQSLGNSSAVLGLCKKGPECANRLQYFLILTIIISFIYSLTAIPGYMVFLRCVKSEEKSLGVGLHTFCIRVFAGIPAPVYFGALIDRTCLHWGTLKCGQRGACRMYDINSFRHIYLGLPIALRGSSYLPAFFILILMRKFQFPGDIDSSATDHTEMMLGEKESEHTDVHGSPQVENDGELKTKL
Km: 1.5 µM
